The record followed here is PMC7362310 (Molecular cell, 2020).

In test [1] the target is FLAG-tagged BRD4-S(a) purified from insect Sf9 cells (human, UniProt O60885-2 1-722). Put plainly: pull-down.
The target in test [2] is FLAG-tagged BRD4-L purified from insect Sf9 cells (human, UniProt O60885-1 1-1362). Put plainly: pull-down.

B1: FLAG-tagged EN1 purified from bacteria (natural protein, UniProt Q05925 1-392, looked up)
chain: MEEQQPEPKSQRDSALGAAAAATPGGLSLSLSPGASGSSGSGSDGDSVPVSPQPAPPSPPAAPCLPPLAHHPHLPPHPPPPPPQHLAAPAHQPQPAAQLHRTTNFFIDNILRPDFGCKKEQPPPQLLVAAAARGGAGGGGRVERDRGQTAAGRDPVHPLGTRAPGAASLLCAPDANCGPPDGSQPAAAGAGASKAGNPAAAAAAAAAAVAAAAAAAAAKPSDTGGGGSGGGAGSPGAQGTKYPEHGNPAILLMGSANGGPVVKTDSQQPLVWPAWVYCTRYSDRPSSGPRTRKLKKKKNEKEDKRPRTAFTAEQLQRLKAEFQANRYITEQRRQTLAQELSLNESQIKIWFQNKRAKIKKATGIKNGLALHLMAQGLYNHSTTTVQDKDESE
As to B1, the binding result in test [1] and in test [2] was “binds” throughout.

B2: FLAG-tagged EN2 purified from bacteria (natural protein, UniProt P19622 1-333, looked up)
chain: MEENDPKPGEAAAAVEGQRQPESSPGGGSGGGGGSSPGEADTGRRRALMLPAVLQAPGNHQHPHRITNFFIDNILRPEFGRRKDAGTCCAGAGGGRGGGAGGEGGASGAEGGGGAGGSEQLLGSGSREPRQNPPCAPGAGGPLPAAGSDSPGDGEGGSKTLSLHGGAKKGGDPGGPLDGSLKARGLGGGDLSVSSDSDSSQAGANLGAQPMLWPAWVYCTRYSDRPSSGPRSRKPKKKNPNKEDKRPRTAFTAEQLQRLKAEFQTNRYLTEQRRQSLAQELSLNESQIKIWFQNKRAKIKKATGNKNTLAVHLMAQGLYNHSTTAKEGKSDSE
For B2, the binding result in test [1] and in test [2] was “binds” each time.
